Experimental findings from PMC6249601 are described below.

This experiment addresses EBOV GP.10xhis. In words: SPR. The settings on record: for increase in kd values at pH 5.0: second pH 7.4.

The term koff denotes the rate constant with which the complex falls apart. A high value points to fast dissociation. Consider REGN3470, for which the “increase in kd values at pH 5.0” value was “less than 2-fold”. Where the note is “pH 5.0”, this substance showed a koff of 0.000491 s⁻¹ and a t 1/2 (min) of 23.5 min. For the setting “pH 6.0”, this substance registered an off-rate (koff) of 0.000367 s⁻¹ and a t 1/2 (min) of 31.4 min. Under “pH 7.4”, this substance displayed an off-rate constant (koff) of 0.000432 s⁻¹ and a t 1/2 (min) of 26.7 min.

As to REGN3471, the “increase in kd values at pH 5.0” value is recorded as “less than 2-fold”. For the setting “pH 5.0”, the koff was found to be 0.000332 s⁻¹ and the t 1/2 (min) was 34.8 min. Where the note is “pH 6.0”, this substance came in with a koff of 0.000221 s⁻¹ and a t 1/2 (min) of 52.3 min. Under “pH 7.4”, this substance came in with a koff of 0.000195 s⁻¹ and a t 1/2 (min) of 59.1 min.

Turning to REGN3479, the “increase in kd values at pH 5.0” value is reported as 3-fold. Moreover, where the note is “pH 5.0”, the koff came out at 0.000202 s⁻¹ and the t 1/2 (min) was 57.3 min. For the setting “pH 6.0”, this substance displayed a koff of 0.000214 s⁻¹ and a t 1/2 (min) of 55.1 min. Under “pH 7.4”, this substance returned an off-rate constant (koff) of 7.83e-05 s⁻¹ and a t 1/2 (min) of 148 min.
